Series [1] can be described thus: HRP activity assay (OPD/H2O2) after freeze-drying and heat-freeze cycles. It counts as biochemical. As for the experimental part:
Type IV horse radish peroxidase (HRP, Sigma-Aldrich) was diluted to 1 μg/ml in:
The PEI was obtained from Sigma (P3143, Mn 60,000). The PEI concentration was based on Mn. 10×100 μl volumes of each of the above solutions were prepared in 5 ml freeze-drying vials. Five replicates of each solution were freeze-dried from minus 32° C. over a 3 day cycle on a VirTis Advantage laboratory freeze-dryer using the protocol described in Example 6.
One vial from each solution of the liquid and dried samples was placed at 4° C. while the rest were frozen to −20° C. Samples from each of the liquid and dry solutions were subjected to 2, 4, and 6 heat-freeze cycles by removing them from the −20° C. freezer and placing them in an incubator set at 37° C. for 4 hours before replacing them in the freezer for 20 hrs 2, 4 and 6 times. 1 vial of each was retained at −20° C. as a control.
When the cycling was completed all the samples, including the −20° C. and 4° C. maintained non-cycled controls were allowed to equilibrate to room temperature. The freeze-dried samples were then reconstituted with 100 μl/vial of deionised water at room temperature.
Triplicate 10 μl samples were removed from each vial into wells of a flat bottomed ELISA plate (Nunc Maxisorb). To each well was then added 50 ul of a chromogen/substrate solution containing 0.4 mg/ml orthophenylene diamine (OPD) and 0.4 ul/ml 30% hydrogen peroxide (H2O2). Colour was allowed to develop before the reaction was stopped by the addition of 50 μl/well of 1M sulphuric acid (H2SO4). Absorbance was measured at 490 nm on a BioTek Synergy HT spectrophotometer and plotted as optical density (OD).

Series [2] can be described thus: Beta-galactosidase assay with x-gal (Example 11). It is filed as biochemical. To be noted: 1M Suc, 100 mM Raf. As for the experimental part:
Excipients mixtures containing β-galactosidase were prepared according to the table below and vortexed. 10 units of β-galactosidase were added to each vial. 200 μl of the vortexed mixture was placed in each appropriately labelled 5 ml glass vials. PEI was obtained from Sigma (P3143, Mn 60,000).
The condenser chamber was −70° C. However there was no shelf control on the freeze-drying unit.
Following freeze-drying, vials were reconstituted in 1 ml PBS. 100 μl of the resulting solution from each vial was added in duplicate (giving a total of 6 readings per excipient type) to each well of a flat bottom 96 well plate. The substrate x-gal was added as according to the manufacturer's instructions. Briefly, a stock solution of 20 mg/ml was made in DMSO and used at a 1 mg/ml working concentration. 100 μl was added to each well and the solution allowed to develop over 10 minutes. Following development, absorbance was measured at 630 nm on a synergy HT microplate. Background from blank wells was then subtracted from all the readings and results assessed using Prism Graphpad.

The subject of series [3] is HL60 cells (ERK1/2 phosphorylation). The experiment in a line: HL60 cell stimulation assay, immunoblot of phosphorylated and total ERK1/2. It counts as cell-based. As for the experimental part:
A lyophilised sample of G-CSF was reconstituted to a concentration of 10 μg/ml. 160 μl of sucrose (1.82M) and 40 μl of raffinose (0.75M) were mixed with 50 μl of PEI (at a concentration of 150 nM based on Mn) to complete the preservation mixture. 50 μl of the reconstituted G-CSF solution was added and mixed well.
100 μl aliquots of the final mixture was distributed into separate vials, and frozen or freeze-dried. Lyophilisation was carried out overnight as described in Example 1. […] Following incubation, the samples were reconstituted in RPMI prior to use.
HL60 cells (shown to be mycoplasma free) were maintained in phenol red containing RPMI 1640 supplemented with 10% foetal bovine serum (FBS) and 2 mM glutamine. Cells were passaged weekly and medium was replenished every 2-3 days.
For stimulation assays HL60 cells were harvested and transferred to serum free medium at a density of 5×10^5 perwell of a 6 well plate. After 24 hours cells were stimulated for 5 minutes with the treatments shown in FIG. 2 (100 ng/ml G-CSF) and as indicated below:
Whole cell extracts were resolved by SDS-PAGE and then transferred to nylon membranes, which were immunoprobed with antibodies against phosphorylated and total ERK1/2.
Cell suspensions were harvested (1000 rpm for 5 minutes) and washed with ice-cold PBS. Cell pellets were then lysed in extraction buffer (1% (v/v) Triton X100, […], pH 7.4, 5 mM EDTA, 50 mM NaCl, 50 mM sodium fluoride 2 mM Na3VO4 and 1 tablet of Complete™ inhibitor mix (Boehringer) per 10 ml of buffer) and homogenised by passage through a 26-gauge needle 6 times. The lysate was incubated on ice for 10 minutes then clarified by centrifugation (14,000 rpm for 10 minutes at 4° C.). The protein concentration was then quantified using the […] (Biorad, Inc.). Equal amounts of protein ([…]) were resolved by SDS-PAGE (10% gels) and then subjected to immunoblot analysis. Antigen-antibody interactions were detected with ECL (Pierce, UK).

The subject of series [4] is HL-60 cells (phospho-ERK1/ERK2). Description: Cell-based ELISA of phosphorylated ERK1/ERK2 in HL-60 cells. As for the experimental part: Sucrose solution was prepared by adding 32 g sucrose powder to 32 ml PBS in a 50 ml falcon tube to give a final volume of 52 ml correlating to a final concentration of 61.54%. The solution was gently heated in a microwave to assist initial solvation but thereafter stored at 4° C.
Raffinose solution was prepared by adding 4 g raffinose to 8 ml PBS in a 50 ml falcon tube to give a final volume of 10.2 ml corresponding to a final concentration of 39.2%. The solution was heated in a microwave to allow complete solvation.
To produce the final sugar mix, the sucrose and raffinose solutions described above were mixed in a 4:1 ratio. In practise, 32 ml sucrose solution was mixed with 8 ml raffinose solution. Once composed, sugar mix was stored at 4° C. and suffered no precipitation.
6 g of PEI (50% w/v) was added to 500 ml PBS to make 6 mg/ml then diluted 1 in 10 to make 600 ug/ml. 600 μg/ml was then diluted to make 100 μg/ml solution of PEI. Serial 1 in 10 dilutions were prepared in PBS to a concentration of 0.01 μg/ml. For final concentrations of PEI refer to Table 2 below. Concentrations were calculated based on Mn.
10 μg of 98% purified recombinant human G-CSF was reconstituted in 1 ml of PBS and diluted to 0.2 ng/ml in PBS (1 in 50,000 dilution), with a starting concentration 10 μg/ml. The G-CSF was aliquoted in 15 μl in Eppendorf tubes and stored at −20° C. for further use.
First dilution: 10 μl of G-CSF at 10 μg/ml was added to 990 μl of PBS (1 in 100 dilutions). Second dilution: 10 μl of 1 in 100 dilutions of G-CSF was added to 4.99 ml of PBS (1 in 500 dilutions). For final concentrations of G-CSF refer to Table 2.
Excipients were prepared according to Table 2. The final concentration of G-CSF was 0.2 ng/ml per vial. The excipients were vortexed to mix and 100 μl placed in each appropriately labelled 5 ml glass vial. Samples were freeze dried by the VirTis Advantage freeze dryer for approximately 3 days.
Samples were prepared as 100 μl aliquots. Freeze-dried samples were resuspended in 100 μl of water.
The ELISA assay method described below was followed as general assay procedure of cell base assay's kit (R&D Systems).
HL-60 cells were maintained in phenol red containing RPMI 1640 supplemented with 20% foetal bovine serum (FBS), Glutamine and Penicillin Streptomycin. HL-60 cells were passaged weekly and medium was replenished every 2-3 days.
The HL-60 (passage three) were transferred to a centrifuge tube and spun down at 1300 rpm, for 5 minutes at 4° C. The supernatant was poured off into a T-75 flask. The pellet was resuspended in 10 ml cold media.
200 μl of cell suspension was transferred into an Eppendorf tube by using a 5 ml pipette. 100 μl of cell suspension was added to 100 μl of trypan blue into another Eppendorf tube and mixed. […]

[5] abbreviates: native (untreated) G-CSF, 100 ng/ml, 5 minutes, serum starved HL60 cells.

The values that follow come from patent US20130071431A1, “Method for Preserving Polypeptides Using A Sugar and Polyethyleneimine” (Stabilitech Ltd., priority 2008, published 2013).

Turning to “HRP: Type IV horse radish peroxidase (HRP, Sigma-Aldrich)”, the “HRP activity (OD 490 nm)” value in series [1] (1M Suc/100 mM Raf with or without 16.6 nM PEI versus PBS alone, all treatments and storage conditions) was “better maintained”. For the same molecule, the “HRP activity after heat/freeze cycles” value in series [1] (excipient-treated samples, 6 heat/freeze cycles (37° C. 4 hours / −20° C. 20 hrs)) is reported as “still maintained more HRP activity than unchallenged samples in PBS”. Besides, the “loss of HRP activity” value in series [1] (sugars, especially in combination with PEI, at the initial freeze-drying stage) is listed as “significantly reduces loss of HRP activity”.
As for “β-galactosidase: β-galactosidase enzyme (Sigma)”, the “β-galactosidase activity following freeze-drying” value is listed as “further enhanced” in series [2] (13.3 μM PEI, compared to sucrose/raffinose alone) and “high in sucrose/raffinose excipients compared to PBS” in series [2] (no PEI, compared to PBS).

B1: G-CSF: human recombinant G-CSF (Sigma in Example 2; MBL JM-4094-10 in Examples 14 and 16) (protein, UniProt P09919 31-207, looked up)
Granulocyte …: TPLGPASSLPQSFLLKCLEQVRKIQGDGAALQEKLVSECATYKLCHPEELVLLGHSLGIPWAPLSSCPSQALQLAGCLSQLHSGLFLYQGLLQALEGISPELGPTLDTLQLDVADFATTIWQQMEELGMAPALQPTQGAMPAFASAFQRRAGGVLVASHLQSFLEVSYRVLRHLAQP
As for B1, the “potency (ERK1/2 phosphorylation) compared to untreated G-CSF” value in series [3] (G-CSF mixed with excipient and freeze-dried (FIG. 2C)) was “maintain the potency”. The “activity (ERK1/2 phosphorylation) compared to untreated G-CSF” value in series [3] (G-CSF mixed with excipient then heat treated 37° C. for 72 hours, not freeze-dried (FIG. 2B)) is “marked loss of activity”. Moreover, the “protection against heat inactivation (ERK1/2 phosphorylation)” value in series [3] (G-CSF mixed with excipient, freeze-dried and heat treated 37° C. for 72 hours (FIG. 2D)) was “protect G-CSF against heat inactivation”. In series [3] (setting [5]), the ERK1/2 phosphorylation entry is listed as “enhance phosphorylation” and the “total ERK1/2 levels” value is on record as “without any effect”. In addition, the “level of phosphorylated ERK1/ERK2” value in series [4] (1M Suc, 0.1M Raf with 1.6 μM, 0.16 μM or 0.016 μM PEI, freeze dried, heat treated at 56° C. (15 min, 1 h, 2 h, O/N)) is reported as “higher level of phosphorylated ERK1/ERK2”. Also, in series [4] (1M Suc, 0.1M Raf with 1.6 μM, 0.16 μM or 0.016 μM PEI, freeze dried, 37° C. or 56° C. for 1 week), the “protection of G-CSF (ERK 1/2 phosphorylation)” value was “protects and stabilises G-CSF”. Also, the “efficacy (phosphorylated ERK1/ERK2)” value in series [4] (freeze-dried with high level of PEI, heat treated at 56° C.) was “greater efficacy”. Further, the “protection of G-CSF (ERK 1/2 phosphorylation)” value in series [4] (sugars with PEI final concentration of 1.6 μM, freeze dried, 37° C. and 56° C. for 1 week) is “highest level of protection”.
